# Measurements reported in patent US5747449A (Corvas International, Inc., priority 1993, dated 1998).
# Molecular target: Factor Xa (Homo sapiens, UniProt P00742)
# Assay: Factor Xa amidolytic assay (chromogenic substrate)
# Type: biochemical
# Conditions: mutants produced in E. coli; read-out: Ki (nM), inhibition constant for Factor Xa
# Description: Trypsin, Factor Xa, thrombin, Factor XIIa and plasmin amidolytic assays […]
# Briefly, the following were added to a 96-well microtiter plate well (see Table below):
# 50 μl inhibitor (various concentrations as required, diluted in TESA);
# 50 μl protease (suitable concentration, diluted in TBSA)
# The plate was incubated at room temperature for 30 minutes or for 2 hours (Factor Xa); and 50 μl chromogenic substrate was added (as required, diluted in water). The initial rate was measured at […] during 10-30 minutes at room temperature.
# To determine the inhibition constants, the initial rate (vi) was measured at various inhibitor ([It ]) and substrate concentrations, and the apparent inhibition constant (Ki) was determined by fitting the data obtained at each substrate concentration with the following equation: […]
# vi /vo ={([Et ]-[It ]-Ki^*) +[([It […]
# where vo is the uninhibited initial rate and [Et ] is the total enzyme concentration. Extrapolation of Ki^* values to zero substrate concentrations yields a value for the real inhibition constant.
# Factor Xa, sequence (P00742 235-488 limits assumed): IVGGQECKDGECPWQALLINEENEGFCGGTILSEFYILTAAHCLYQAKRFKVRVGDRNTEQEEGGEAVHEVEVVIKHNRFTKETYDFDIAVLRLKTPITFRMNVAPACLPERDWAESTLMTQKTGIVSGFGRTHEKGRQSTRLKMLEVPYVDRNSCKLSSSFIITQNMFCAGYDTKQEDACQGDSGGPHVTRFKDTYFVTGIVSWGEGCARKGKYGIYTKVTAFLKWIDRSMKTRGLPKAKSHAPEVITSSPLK
# Factor Xa, sequence (P00742 41-179 partner limits assumed): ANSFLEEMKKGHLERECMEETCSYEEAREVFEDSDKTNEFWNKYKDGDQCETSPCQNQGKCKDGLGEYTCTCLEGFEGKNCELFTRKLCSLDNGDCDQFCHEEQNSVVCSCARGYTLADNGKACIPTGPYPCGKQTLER
row,Ki [nM],Substance
1,5,3L55: BPTI with substitutions 13Ile 15Arg 17Ala 18Phe 19Asn 39Leu 46Glu
2,4,3L60: BPTI with substitutions 13Ile 15Arg 17Tyr 18Tyr 19Lys 39Leu 46Glu
3,4,5L48: BPTI with substitutions 11Glu 13Trp 15Arg 17Leu 18His 19His 34Ile 39Gly 46Glu
4,5,5L65: BPTI with substitutions 11Ser 13Leu 15Arg 17Leu 18His 19Lys 34Tyr 39Tyr 46Glu
5,1.5,5L68: BPTI with substitutions 11Ser 13Leu 15Arg 17Leu 18His 19Lys 34Tyr 39Phe 46Glu
6,5,5L69: BPTI with substitutions 11Pro 13Ile 15Arg 17Leu 18His 19Lys 34Tyr 39Met 46Glu
7,2,5L84: BPTI with substitutions 11Glu 13Leu 15Arg 17Leu 18His 19Lys 34Tyr 39Phe 46Glu
